# Residue numbers refer to the chain shown, from its start.
# T1: wild type Rb pocket domain (Rb^P) (human, UniProt P06400 380-788)
# T1 sequence: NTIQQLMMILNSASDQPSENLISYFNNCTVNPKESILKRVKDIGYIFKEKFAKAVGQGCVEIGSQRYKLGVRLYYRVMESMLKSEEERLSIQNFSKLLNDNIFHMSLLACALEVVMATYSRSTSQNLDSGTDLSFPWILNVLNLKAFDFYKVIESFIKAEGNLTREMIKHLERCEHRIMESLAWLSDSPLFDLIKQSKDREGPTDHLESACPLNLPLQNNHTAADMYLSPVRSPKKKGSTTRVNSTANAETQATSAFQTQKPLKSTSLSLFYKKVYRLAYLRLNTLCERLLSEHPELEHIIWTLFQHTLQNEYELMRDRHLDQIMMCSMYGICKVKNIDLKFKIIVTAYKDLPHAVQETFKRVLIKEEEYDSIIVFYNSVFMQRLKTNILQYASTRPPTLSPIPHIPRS
# T2: Rb^P S534R (human, UniProt P06400 380-788, S534R)
# T2 sequence: T1 sequence with S155R
# T3: Rb^P R656Q (human, UniProt P06400 380-788, R656Q)
# T3 sequence: T1 sequence with R277Q
# T4: Rb^P A525G (human, UniProt P06400 380-788, A525G)
# T4 sequence: T1 sequence with A146G
# T5: Rb^P I703V (human, UniProt P06400 380-788, I703V)
# T5 sequence: T1 sequence with I324V
# What was measured:
# Assay in all cases: fluorescence polarisation
# [1] = target: T1, wild type Rb pocket domain (Rb^P)
# Rb^P S534R = target: T2, Rb^P S534R
# Rb^P R656Q = target: T3, Rb^P R656Q
# Rb^P A525G = target: T4, Rb^P A525G
# Rb^P I703V = target: T5, Rb^P I703V
binder,measurement,setting,value
"DLYCYEQLN (not fully specified; TMR fluorescent label (TMR-E7^LxCxE)) [TMR-E7^LxCxE (LxCxE peptide of the E7 oncoprotein from HPV, TMR-labeled)]",Kd,[1],12 nM
same,binding result,Rb^P S534R,binds
same,binding result,Rb^P R656Q,binds
same,binding result,Rb^P A525G,binds
same,binding result,Rb^P I703V,binds

# Source: paper doi:10.1101/2024.09.22.614354 (bioRxiv, 2024)
